Data from US20140024606A1.

Tests used:
[1] = target: IL-1 receptor (IL-1R) on cells (UniProt P14778); test: cell-based or functional assay
[2] = target: CD36 on RAW 264.7 murine macrophage cells (murine) (UniProt Q08857); test: cell-based or functional assay
[3] = target: recombinant soluble His-tagged CD36; test: SPR; His-tagged soluble CD36 immobilized, peptide 100 nM to 30 µM, Langmuir isotherm fit
Chain of recombinant soluble His-tagged CD36 (P16671 30-439): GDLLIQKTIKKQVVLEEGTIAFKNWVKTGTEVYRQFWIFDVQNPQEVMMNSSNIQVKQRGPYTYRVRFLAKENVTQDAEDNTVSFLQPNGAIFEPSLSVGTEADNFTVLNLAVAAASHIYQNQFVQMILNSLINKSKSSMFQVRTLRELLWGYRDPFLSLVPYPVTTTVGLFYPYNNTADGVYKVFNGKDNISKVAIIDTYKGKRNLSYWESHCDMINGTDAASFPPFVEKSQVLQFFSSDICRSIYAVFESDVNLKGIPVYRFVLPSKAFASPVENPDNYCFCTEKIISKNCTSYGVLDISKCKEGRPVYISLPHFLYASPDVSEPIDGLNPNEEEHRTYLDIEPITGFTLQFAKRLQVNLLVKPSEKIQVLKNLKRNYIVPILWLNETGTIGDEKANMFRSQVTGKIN

Chain of IL-1 receptor (IL-1R) on cells (P14778 18-569 limits assumed): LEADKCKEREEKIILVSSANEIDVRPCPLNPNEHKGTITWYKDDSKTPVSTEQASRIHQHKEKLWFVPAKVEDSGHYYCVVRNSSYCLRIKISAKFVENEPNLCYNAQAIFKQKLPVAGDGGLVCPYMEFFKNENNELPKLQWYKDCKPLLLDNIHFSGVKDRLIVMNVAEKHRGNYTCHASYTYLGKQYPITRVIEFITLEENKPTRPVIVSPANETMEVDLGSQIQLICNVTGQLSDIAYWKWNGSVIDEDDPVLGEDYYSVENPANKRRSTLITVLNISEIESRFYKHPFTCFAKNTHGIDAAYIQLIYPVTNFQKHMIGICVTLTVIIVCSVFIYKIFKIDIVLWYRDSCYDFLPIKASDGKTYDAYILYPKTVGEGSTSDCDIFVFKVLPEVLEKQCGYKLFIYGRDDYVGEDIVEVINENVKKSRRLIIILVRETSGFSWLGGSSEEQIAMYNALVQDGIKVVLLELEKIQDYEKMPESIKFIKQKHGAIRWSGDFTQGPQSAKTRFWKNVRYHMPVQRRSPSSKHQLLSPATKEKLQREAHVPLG
Chain of CD36 on RAW 264.7 murine macrophage cells (murine) (Q08857 whole entry): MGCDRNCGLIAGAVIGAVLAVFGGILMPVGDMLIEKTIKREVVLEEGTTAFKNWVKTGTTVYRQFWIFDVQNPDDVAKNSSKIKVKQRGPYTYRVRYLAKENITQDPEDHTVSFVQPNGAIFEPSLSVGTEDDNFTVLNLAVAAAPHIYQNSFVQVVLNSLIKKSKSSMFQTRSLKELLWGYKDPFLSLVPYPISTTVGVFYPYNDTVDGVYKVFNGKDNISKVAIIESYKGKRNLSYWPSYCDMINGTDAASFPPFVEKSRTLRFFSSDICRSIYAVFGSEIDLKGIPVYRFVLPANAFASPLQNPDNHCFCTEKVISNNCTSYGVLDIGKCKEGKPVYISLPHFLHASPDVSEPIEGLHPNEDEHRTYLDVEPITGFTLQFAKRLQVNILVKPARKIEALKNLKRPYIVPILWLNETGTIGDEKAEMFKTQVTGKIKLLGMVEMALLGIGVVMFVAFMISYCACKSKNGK

decrease in NF-KB activation in HEK Blue cells (SEAP reporter, OD620) [1] | IL-1β-induced human thymocyte (TF-1) proliferation [1] | JNK-kinase cellular assay EC50 [2] | Kd [3] | ΔλSPR (nm) [3] | Substance
 | 41% |  |  |  | [(R)-Agl^3]-101.10 (peptide)
 | 41% |  |  |  | [Nap^3]-101.10 (D-Arg-D-Tyr-Nap-D-Val-D-Glu-D-Leu-D-Ala-NH2) (peptide)
65% | 77% |  |  |  | [Nai^3]-101.10 (D-Arg-D-Tyr-Nai-D-Val-D-Glu-D-Leu-D-Ala-NH2) (peptide)
 |  | > 10 µM | 11 µM | 1.6 nm | [N-Amino-4-benzylimidazolin-2-one^4]GHRP-6 (His-D-Trp-Ala-(N-amino-4-benzyl-imidazolin-2-one)-D-Phe-Lys-NH2), 31b (peptide)

Further lines, the substance ahead of its results:

Substance | decrease in NF-KB activation in HEK Blue cells (SEAP reporter, OD620) [1] | IL-1β-induced human thymocyte (TF-1) proliferation [1] | JNK-kinase cellular assay EC50 [2] | Kd [3] | ΔλSPR (nm) [3]
Kineret (from UniProt P18510 26-177) (ligand) | 100% |  |  |  | 
[N-Amino-4-methylimidazolin-2-one^4]GHRP-6 (His-D-Trp-Ala-(N-amino-4-methyl-imidazolin-2-one)-D-Phe-Lys-NH2), RS-31a (peptide) |  |  | 0.0554 µM | 4.9 µM | 1.1 nm
[Nad^3]-101.10 (D-Arg-D-Tyr-Nad-D-Val-D-Glu-D-Leu-D-Ala-NH2) (peptide) |  | 53% |  |  | 
[azaTyr^4]GHRP-6 (His-D-Trp-Ala-AzaTyr-D-Phe-Lys-NH2) (peptide) |  |  | 0.214 µM | 5 µM | 1.8 nm
